Source: US20250320281A1

Legend:
Experiment in all cases: cell-based or functional assay
[1] = target: HIV-1 Env of isolate MGRM-C-027 (HIV-1)
[2] = target: HIV-1 Env of isolate MGRM-D-018 (pseudovirus) (HIV-1)
[3] = target: HIV-1 Env of isolate 93TH305 (subtype B pseudovirus) (HIV-1)
[4] = target: HIV-1 Env of isolate MGRM-AE-008 (HIV-1)
[5] = target: aMLV envelope (pseudovirus, negative control)
[6] = target: HIV-1 Env of isolate MGRM-D-029 (pseudovirus) (HIV-1)
[7] = target: HIV-1 Env of isolate MGRM-D-002 (pseudovirus) (HIV-1)
[8] = target: HIV-1 APV17 Env (pseudovirus) (HIV-1)
[9] = target: HIV-1 Env of isolate 92UG046 (pseudovirus) (HIV-1)
[10] = target: HIV-1 Env of isolate MGRM-D-004 (pseudovirus) (HIV-1)
[11] = target: HIV-1 Env of isolate MGRM-D-026 (pseudovirus) (HIV-1)
[12] = target: HIV-1 Env of isolate MGRM-D-001 (pseudovirus) (HIV-1)
[13] = target: HIV-1 Env of isolate MGRM-AG-005 (subtype AG) (HIV-1)
[14] = target: HIV-1 Env of isolate MGRM-Chronic-B-003 (subtype B) (HIV-1)
[15] = target: HIV-1 Env of isolate MGRM-AG-006 (subtype AG) (HIV-1)
[16] = target: HIV-1 envelope glycoprotein (Env) of isolate MGRM-C-023 (HIV-1)
[17] = target: HIV-1 Env of isolate MGRM-AE-006 (subtype AE) (HIV-1)
[18] = target: HIV-1 envelope glycoprotein (Env) of isolate MGRM-C-020 (HIV-1)
[19] = target: HIV-1 Env of isolate 92BR020 (HIV-1)
[20] = target: HIV-1 Env of isolate MGRM-AE-003 (subtype AE) (HIV-1)
[21] = target: HIV-1 Env of isolate 93UG077 (HIV-1)
[22] = target: HIV-1 Env of isolate CMU02 (subtype AE) (HIV-1)
[23] = target: HIV-1 Env of isolate MGRM-AE-001 (subtype AE) (HIV-1)
[24] = target: HIV-1 Env of isolate MG RM-D-014 (HIV-1)
[25] = target: HIV-1 Env of isolate MGRM-AE-005 (subtype AE) (HIV-1)
[26] = target: HIV-1 Env of isolate MGRM-AG-001 (subtype AG) (HIV-1)
[27] = target: HIV-1 92TH021 envelope glycoprotein (Env) on pseudovirus (HIV-1)
[28] = target: HIV-1 92RW020 envelope glycoprotein (Env) on pseudovirus (HIV-1)

Sequence of 5329_C19 (PGT-136) (antibody) (VH): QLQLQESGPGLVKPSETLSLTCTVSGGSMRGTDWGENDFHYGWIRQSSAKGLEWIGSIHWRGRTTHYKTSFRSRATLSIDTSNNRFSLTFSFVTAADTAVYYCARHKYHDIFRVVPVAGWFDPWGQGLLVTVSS
Sequence of 5329_C19 (PGT-136) (antibody) (VL): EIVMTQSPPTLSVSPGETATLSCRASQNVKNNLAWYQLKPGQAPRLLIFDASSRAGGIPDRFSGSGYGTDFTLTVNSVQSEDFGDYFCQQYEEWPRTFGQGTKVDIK
Sequence of 5345_I01 (PGT-137) (antibody) (VH): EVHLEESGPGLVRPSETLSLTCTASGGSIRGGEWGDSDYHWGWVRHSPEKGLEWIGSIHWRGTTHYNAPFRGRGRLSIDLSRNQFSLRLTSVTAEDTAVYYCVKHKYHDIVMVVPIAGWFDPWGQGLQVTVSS
Sequence of 5345_I01 (PGT-137) (antibody) (VL): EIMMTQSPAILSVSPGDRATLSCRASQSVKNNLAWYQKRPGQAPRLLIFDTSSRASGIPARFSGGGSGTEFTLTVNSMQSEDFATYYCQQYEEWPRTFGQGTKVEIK

| Substance | neutralization IC50 [1] [µg/mL] | IC50, pseudovirus neutralization [2] [µg/mL] | IC50 (µg/mL), pseudovirus neutralization [3] [µg/mL] | IC50 [4] [µg/mL] | neutralization IC50 (pseudovirus) [5] [µg/mL] | IC50, pseudovirus neutralization [6] [µg/mL] | IC50, pseudovirus neutralization [7] [µg/mL] | IC50, pseudovirus neutralization [9] [µg/mL] | IC50, pseudovirus neutralization [10] [µg/mL] | IC50, pseudovirus neutralization [11] [µg/mL] | IC50, pseudovirus neutralization [12] [µg/mL] | IC50 (µg/mL), pseudovirus neutralization [13] [µg/mL] | IC50 neutralization [14] [µg/mL] | IC50 (µg/mL), pseudovirus neutralization [15] [µg/mL] | IC50 (µg/mL), pseudovirus neutralization [16] [µg/mL] | IC50 (µg/mL), pseudovirus neutralization [17] [µg/mL] | IC50 (µg/mL), pseudovirus neutralization [18] [µg/mL] | neutralization IC50 [19] [µg/mL] | IC50 (µg/mL), pseudovirus neutralization [20] [µg/mL] | IC50 [21] [µg/mL] | further results |
| --- | --- | --- | --- | --- | --- | --- | --- | --- | --- | --- | --- | --- | --- | --- | --- | --- | --- | --- | --- | --- | --- |
| 5123_A06 (PGT-125) (antibody) | > 50 | > 50 | 0.008 | > 50 | > 10 | > 50 | 0.118 | > 50 | 0.371 | > 50 | 2.84 | – | – | – | – | – | – | – | – | – | neutralization IC50 (pseudovirus) [8]: 7.31 µg/mL |
| 5147_N06 (PGT-130) (antibody) | – | – | – | – | > 10 | – | – | – | – | – | – | 0.54 | > 50 | 0.009 | 0.151 | 0.009 | > 50 | 1.4 | 0.337 | 21.4 | Neutralization by PGT-130, IC50 [5]: > 10 µg/mL; Neutralization by PGT-130, IC80 [5]: > 10 µg/mL; Neutralization by PGT-130, IC90 [5]: > 10 µg/mL; Neutralization by PGT-130, IC95 [5]: > 10 µg/mL; Neutralization by PGT-130, IC50 [8]: > 10 µg/mL; Neutralization by PGT-130, IC80 [8]: > 10 µg/mL; Neutralization by PGT-130, IC90 [8]: > 10 µg/mL; Neutralization by PGT-130, IC95 [8]: > 10 µg/mL; neutralization IC50 (pseudovirus) [8]: > 10 µg/mL; IC50 (µg/mL), pseudovirus neutralization [22]: > 50 µg/mL; IC50 (µg/mL), pseudovirus neutralization [23]: 1 µg/mL; IC50 (µg/mL), pseudovirus neutralization [24]: 0.061 µg/mL; IC50 (µg/mL), pseudovirus neutralization [25]: 0.006 µg/mL; IC50 (µg/mL), pseudovirus neutralization [26]: > 50 µg/mL |
| 5136_H01 (PGT-131) (antibody) | – | – | – | – | – | – | – | – | – | – | – | 1.04 | > 50 | 0.019 | 0.143 | 0.026 | > 50 | 6.16 | 1.41 | > 50 | IC50 (µg/mL), pseudovirus neutralization [22]: > 50 µg/mL; IC50 (µg/mL), pseudovirus neutralization [23]: 4.8 µg/mL; IC50 (µg/mL), pseudovirus neutralization [24]: 0.516 µg/mL; IC50 (µg/mL), pseudovirus neutralization [25]: 0.017 µg/mL; IC50 (µg/mL), pseudovirus neutralization [26]: > 50 µg/mL |
| 4838_L06 (PGT-121) (antibody) | 0.011 | 0.005 | 0.007 | > 50 | > 10 | > 50 | 0.006 | > 50 | > 50 | > 50 | 0.615 | – | – | – | – | – | – | – | – | – | – |
| 5141_B17 (PGT-126) (antibody) | 15.6 | 0.009 | 0.013 | > 50 | > 10 | > 50 | 0.039 | > 50 | > 50 | > 50 | 0.084 | – | – | – | – | – | – | – | – | – | IC50, pseudovirus neutralization [27]: 0.115 µg/mL; IC80 (pseudovirus neutralization) [27]: 1.62 µg/mL; IC90 (pseudovirus neutralization) [27]: 6.91 µg/mL; IC95 (pseudovirus neutralization) [27]: > 10 µg/mL; IC50, pseudovirus neutralization [28]: 0.0046 µg/mL; IC80 (pseudovirus neutralization) [28]: 0.0168 µg/mL; IC90 (pseudovirus neutralization) [28]: 0.0359 µg/mL; IC95 (pseudovirus neutralization) [28]: 0.0728 µg/mL; neutralization IC50 (pseudovirus) [8]: 0.501 µg/mL |
| 5145_B14 (PGT-127) (antibody) | > 50 | 0.021 | 0.017 | > 50 | – | > 50 | 0.6 | > 50 | > 50 | > 50 | 2.23 | – | – | – | – | – | – | – | – | – | – |
| 5343_B08 (PGT-135) (antibody) | – | – | – | – | – | – | – | – | – | – | – | > 50 | > 50 | 17.9 | 0.061 | > 50 | > 50 | 0.073 | > 50 | > 50 | IC50 (neutralizing activity, pseudovirus) [8]: > 10 µg/mL; IC50 (µg/mL), pseudovirus neutralization [22]: > 50 µg/mL; IC50 (µg/mL), pseudovirus neutralization [23]: > 50 µg/mL; IC50 (µg/mL), pseudovirus neutralization [24]: 2.21 µg/mL; IC50 (µg/mL), pseudovirus neutralization [25]: > 50 µg/mL; IC50 (µg/mL), pseudovirus neutralization [26]: > 50 µg/mL |
| 5345_I01 (PGT-137) (antibody) | – | – | – | – | – | – | – | – | – | – | – | > 50 | > 50 | 28.3 | 0.23 | > 50 | > 50 | 7.81 | > 50 | > 50 | IC50 (µg/mL), pseudovirus neutralization [22]: > 50 µg/mL; IC50 (µg/mL), pseudovirus neutralization [23]: > 50 µg/mL; IC50 (µg/mL), pseudovirus neutralization [24]: > 50 µg/mL; IC50 (µg/mL), pseudovirus neutralization [25]: > 50 µg/mL; IC50 (µg/mL), pseudovirus neutralization [26]: > 50 µg/mL |
| 5114_A19 (PGT-128) (antibody) | – | – | – | – | – | – | – | – | – | – | – | 0.037 | 0.007 | 0.009 | 0.026 | 0.044 | 5.85 | 0.009 | 0.18 | 0.014 | IC50 (µg/mL), pseudovirus neutralization [22]: > 50 µg/mL; IC50 (µg/mL), pseudovirus neutralization [23]: 0.069 µg/mL; IC50 (µg/mL), pseudovirus neutralization [24]: 0.013 µg/mL; IC50 (µg/mL), pseudovirus neutralization [25]: 0.032 µg/mL; IC50 (µg/mL), pseudovirus neutralization [26]: 4.73 µg/mL |
| 4858_P08 (PGT-123) (antibody) | 0.02 | 0.007 | 0.008 | > 50 | > 10 | > 50 | 0.012 | > 50 | > 50 | > 50 | 0.147 | – | – | – | – | – | – | – | – | – | neutralization IC50 [27]: > 10 µg/mL; neutralization IC80 [27]: > 10 µg/mL; neutralization IC90 [27]: > 10 µg/mL; neutralization IC95 [27]: > 10 µg/mL; neutralization IC50 [28]: 0.0038 µg/mL; neutralization IC80 [28]: 0.0106 µg/mL; neutralization IC90 [28]: 0.0194 µg/mL; neutralization IC95 [28]: 0.0343 µg/mL; neutralization IC50 (pseudovirus) [8]: 0.18 µg/mL |
| 4877_D15 (PGT-122) (antibody) | 0.039 | 0.007 | 0.013 | > 50 | > 10 | > 50 | 0.005 | > 50 | > 50 | > 50 | 1.13 | – | – | – | – | – | – | – | – | – | neutralization IC50 (pseudovirus) [8]: 0.522 µg/mL |
| 5329_C19 (PGT-136) (antibody) | – | – | – | – | – | – | – | – | – | – | – | > 50 | > 50 | 29.1 | 3.2 | > 50 | > 50 | 8.61 | > 50 | > 50 | IC50 (neutralizing activity, pseudovirus) [8]: > 10 µg/mL; IC50 (µg/mL), pseudovirus neutralization [22]: > 50 µg/mL; IC50 (µg/mL), pseudovirus neutralization [23]: > 50 µg/mL; IC50 (µg/mL), pseudovirus neutralization [24]: > 50 µg/mL; IC50 (µg/mL), pseudovirus neutralization [25]: > 50 µg/mL; IC50 (µg/mL), pseudovirus neutralization [26]: > 50 µg/mL |
